Measurements taken from patent publication US20090092581A1.
Several values for one entry are separate records, joined by “and”; a condition that tells them apart may be missing. Equal values may be shown once.

T1: Type I IFN receptor on iLite human IFN-α gene-reporter cells (human) (UniProt P17181)
T1 sequence (looked up) 1: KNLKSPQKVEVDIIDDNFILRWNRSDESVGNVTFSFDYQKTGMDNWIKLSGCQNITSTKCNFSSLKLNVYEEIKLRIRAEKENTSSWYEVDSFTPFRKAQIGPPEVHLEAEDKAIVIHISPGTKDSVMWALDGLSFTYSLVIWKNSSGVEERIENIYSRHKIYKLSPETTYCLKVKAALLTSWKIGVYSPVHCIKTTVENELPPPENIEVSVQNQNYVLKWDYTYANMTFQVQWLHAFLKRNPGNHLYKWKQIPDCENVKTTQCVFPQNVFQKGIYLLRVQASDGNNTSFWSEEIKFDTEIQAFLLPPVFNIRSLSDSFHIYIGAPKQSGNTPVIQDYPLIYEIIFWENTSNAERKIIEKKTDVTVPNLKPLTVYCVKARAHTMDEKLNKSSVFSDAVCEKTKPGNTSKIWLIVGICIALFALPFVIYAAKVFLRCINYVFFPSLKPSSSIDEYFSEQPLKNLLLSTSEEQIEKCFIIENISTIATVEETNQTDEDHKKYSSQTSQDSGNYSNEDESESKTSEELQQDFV
T1 sequence (looked up) 2: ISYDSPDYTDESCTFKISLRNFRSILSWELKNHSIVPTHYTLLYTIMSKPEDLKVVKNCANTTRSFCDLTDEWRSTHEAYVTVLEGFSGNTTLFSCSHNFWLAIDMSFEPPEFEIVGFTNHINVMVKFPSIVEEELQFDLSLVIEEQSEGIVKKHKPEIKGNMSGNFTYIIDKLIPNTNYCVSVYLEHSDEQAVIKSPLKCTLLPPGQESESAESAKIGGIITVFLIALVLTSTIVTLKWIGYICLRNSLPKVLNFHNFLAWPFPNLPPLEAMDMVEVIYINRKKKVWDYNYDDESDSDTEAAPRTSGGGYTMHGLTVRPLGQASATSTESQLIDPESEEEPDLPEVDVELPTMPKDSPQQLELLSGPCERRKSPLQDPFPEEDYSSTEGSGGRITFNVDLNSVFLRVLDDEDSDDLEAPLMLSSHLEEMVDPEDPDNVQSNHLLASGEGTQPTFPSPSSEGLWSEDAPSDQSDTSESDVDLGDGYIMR

B1: Cynomolgus IFN-α protein SEQ ID 56, expressed in Vero tissue culture supernatant (ligand)
chain: CDLPQTHSLGHRRALILLAQMGRISPFSCLKDRHDFGFPQEEFDGNQFQKAQAMSVLHEMIQQTFNLFSTKDSSAAWEQNLLEKFSAELYQQLNDLKACVIAEPGMEDTPLMNEDSILAVKKYFQRITLYLTEKKYSPCAWEVVRAEIMRSLSFSTNLQKRLRRKD
B2: Cynomolgus IFN-α protein SEQ ID 44, expressed in Vero tissue culture supernatant (ligand)
chain: CDLPQTHSLGHRRALILLAQMGRISPFSCLKDRRDFAFPQEEFDGNQFQKAQAMSVLHEMIQQTFNLFSTKDSSAAWEQNLLEKFSAELYQQLNDLKACVIAEPGMEDTPLMNEDSILAVKKYFQRITLYLTEKKYSPCAWEVVRTEIMRSLSFSTNLQKRLRRKD
B3: Cynomolgus IFN-α protein SEQ ID 50, expressed in Vero tissue culture supernatant (ligand)
chain: CNPSQTHNMNNRRTLMLMAQMRRISPFSCLKDRNDFEFPQEEFDGNQFQNTQAISVLHEMMQQTFNLFSTKDSSAAWDETLLDKFYIELFQQLNDLEACVIQEAGVEETPLMNEDSILAVRKYFQRITLYLMEKKYSPCAWEVVRAEIMRSLSFSTNLQKRLRRKD
B4: Cynomolgus IFN-α protein SEQ ID 52, expressed in Vero tissue culture supernatant (ligand)
chain: MALSFSLLMAVVVLSYKSICSLGCDLPQTHSLGHRRALILLAQMQRISLPSCLKDRHDFAFLQEFDGNQFQKAQAMSVLHEMIQQTFNLLSTKDSSAAWDETLLDKFYIELFQQLNDLEACVIQEAGVEETPLMNEDSILAVRKYFQRITLYLTEKKYSPCAWEVVRAEIMRSLSFSTNLQKRLGRKD
B5: Cynomolgus IFN-α protein SEQ ID 48, expressed in Vero tissue culture supernatant (ligand)
chain: MALSFSLLMAVVVLSYKSICSLGCDPPRTHSLGHRRALILLAQMERISPFSCLKDRCDFAFPQEEFDGNQFQKAQAMSVLHEMIQQTFNLFSTKDSSAAWEQNLLEKFSAELYQQLNDLKACVIAEPGMEETLLMNEDSILAVKKYFQRITLYLTEKKYSPCAWEVVRAEIMRSLSFSTNLQKRLRRKD

Columns and labels:
[1] = molecular target: T1, Type I IFN receptor on iLite human IFN-α gene-reporter cells (human); test: cell-based or functional assay
[2] = molecular target: Cynomolgus IFN-α protein SEQ ID 54, expressed in Vero tissue culture supernatant (Cynomolgus (Macaca fascicularis)); test: ELISA kit PBL #41105 on Vero supernatant; read against human IFN-α2a standard curve; unit not given; second of two values
[3] = molecular target: Cynomolgus IFN-α protein SEQ ID 54, expressed in Vero tissue culture supernatant (Cynomolgus (Macaca fascicularis)); test: ELISA kit PBL #41105 on Vero supernatant; read against human IFN-α2a standard curve; unit not given; first of two values
[4] = molecular target: Cynomolgus IFN-α protein SEQ ID 42, expressed in Vero tissue culture supernatant (Cynomolgus (Macaca fascicularis)); test: ELISA kit PBL #41105 on Vero supernatant; read against human IFN-α2a standard curve; unit not given
[5] = molecular target: Cynomolgus IFN-α protein SEQ ID 62, expressed in Vero tissue culture supernatant (Cynomolgus (Macaca fascicularis)); test: as above
[6] = molecular target: Cynomolgus IFN-α protein SEQ ID 66, expressed in Vero tissue culture supernatant (Cynomolgus (Macaca fascicularis)); test: as above
[7] = molecular target: Cynomolgus IFN-α protein SEQ ID 58, expressed in Vero tissue culture supernatant (Cynomolgus (Macaca fascicularis)); test: as above
[8] = molecular target: Cynomolgus IFN-α protein SEQ ID 50, expressed in Vero tissue culture supernatant (Cynomolgus (Macaca fascicularis)); test: as above
[9] = molecular target: Cynomolgus IFN-α protein SEQ ID 60, expressed in Vero tissue culture supernatant (Cynomolgus (Macaca fascicularis)); test: as above
[10] = molecular target: Cynomolgus IFN-α protein SEQ ID 56, expressed in Vero tissue culture supernatant (Cynomolgus (Macaca fascicularis)); test: as above
[11] = molecular target: Cynomolgus IFN-α protein SEQ ID 46, expressed in Vero tissue culture supernatant (Cynomolgus (Macaca fascicularis)); test: as above

Molecule	% Neutralization of Luciferase Induction by anti-Type I IFN Receptor Antibody (25 µg/mL) [1] [%]	Luciferase Induction Activity (U/mL) [1] [U/mL]	also measured
Cynomolgus IFN-α protein SEQ ID 42, expressed in Vero tissue culture supernatant (from UniProt P01571 24-189) (ligand)	> 99	36700	
Cynomolgus IFN-α protein SEQ ID 46, expressed in Vero tissue culture supernatant (from UniProt P01571 24-189) (ligand)	> 99	2700	
Cynomolgus IFN-α protein SEQ ID 54, expressed in Vero tissue culture supernatant (from UniProt P01568 24-188) (ligand)	> 99	11600	
Cynomolgus IFN-α protein SEQ ID 58, expressed in Vero tissue culture supernatant (from UniProt P01570 24-189) (ligand)	> 99	8950	
Cynomolgus IFN-α protein SEQ ID 60, expressed in Vero tissue culture supernatant (from UniProt P32881 24-189) (ligand)	> 99	48900	
Cynomolgus IFN-α protein SEQ ID 62, expressed in Vero tissue culture supernatant (from UniProt P01571 24-189) (ligand)	> 99	16000	
Cynomolgus IFN-α protein SEQ ID 66, expressed in Vero tissue culture supernatant (from UniProt P01563 24-188) (ligand)	> 99	6630	
Human IFN-α Multi-Subtype ELISA kit, PBL # 41105 (kit antibodies) (antibody)			ELISA estimate of IFN-α protein level in tissue culture supernatant [2]: 8; ELISA estimate of IFN-α protein level in tissue culture supernatant [3]: 8; ELISA estimate of IFN-α protein level in tissue culture supernatant [4]: 287 and 566; ELISA estimate of IFN-α protein level in tissue culture supernatant [5]: 75 and 95; ELISA estimate of IFN-α protein level in tissue culture supernatant [6]: > 651 and 1500; ELISA estimate of IFN-α protein level in tissue culture supernatant [7]: > 1120; ELISA estimate of IFN-α protein level in tissue culture supernatant [8]: > 1120; ELISA estimate of IFN-α protein level in tissue culture supernatant [9]: > 651 and 1000; ELISA estimate of IFN-α protein level in tissue culture supernatant [10]: 289 and 414; ELISA estimate of IFN-α protein level in tissue culture supernatant [11]: 187 and 123
B1	> 99	822	
B2	> 99	2830	
B3	> 99	8040	
B4	> 99	515	
B5	> 99	2170	
